Assay results: patent publication US20180244738A1

Target: NuRD complex (nucleosome remodeling and deacetylase corepressor complex)
Assay: cell-based or functional assay

- tumor cell senescence (SA-β-Gal+ cells) in transfected MCF-7 and E0771 cells, 3 days: 40%
Substance: full-length SALL1, wild-type (transfected, pcDNA3.1-SALL1) (from UniProt Q9NSC2 1-1324)
